Source: paper PMC11826918, “Generation of antagonistic biparatopic anti-CD30 antibody from an agonistic antibody by precise epitope determination and utilization of structural characteristics of CD30 molecule” (Antibody Therapeutics, 2025)

Assays:
Test in all cases: SPR; Biacore T200; antibody captured on anti-human Fc (CM5 chip); CD30-MBP flowed at 0, 2, 20 nM (T426: 0, 20, 200 nM), contact 90 s, dissociation 300 s; fit to a 1:1 binding mode; rough-level analysis
Conditions in all cases: both partners purified
[1] = biological target: T1, BpT10-104
T1 construct: AC10 Fv, N side; T104 Fv, C side; one Fab of each Fv; knobs-into-holes Fc; source: Expi293 fragments joined by intein-mediated protein trans-splicing, purified (Superdex 200 Increase); copies: + + +

[2] = biological target: T2, BpT104-405
T2 construct: T104 Fv, N side; T405 Fv, C side; one Fab of each Fv; knobs-into-holes Fc; source: Expi293 fragments joined by intein-mediated protein trans-splicing, purified (Superdex 200 Increase); copies: + + +

[3] = biological target: T3, BpT105-405
T3 construct: T105 Fv, N side; T405 Fv, C side; one Fab of each Fv; knobs-into-holes Fc; source: Expi293 fragments joined by intein-mediated protein trans-splicing, purified (Superdex 200 Increase); copies: + + +

[4] = biological target: T4, BpT25-6
T4 construct: T25 Fv, N side; T6 Fv, C side; one Fab of each Fv; knobs-into-holes Fc; source: Expi293 fragments joined by intein-mediated protein trans-splicing, purified (Superdex 200 Increase); copies: + + +

[5] = biological target: T5, BpT107-25
T5 construct: T107 Fv, N side; T25 Fv, C side; one Fab of each Fv; knobs-into-holes Fc; source: Expi293 fragments joined by intein-mediated protein trans-splicing, purified (Superdex 200 Increase); copies: + + +

[6] = biological target: T6, BpT105-6
T6 construct: T105 Fv, N side; T6 Fv, C side; one Fab of each Fv; knobs-into-holes Fc; source: Expi293 fragments joined by intein-mediated protein trans-splicing, purified (Superdex 200 Increase); copies: + + +

[7] = biological target: T7, BpT105-107
T7 construct: T105 Fv, N side; T107 Fv, C side; one Fab of each Fv; knobs-into-holes Fc; source: Expi293 fragments joined by intein-mediated protein trans-splicing, purified (Superdex 200 Increase); copies: + + +

[8] = biological target: T8, BpT427-6
T8 construct: T427 Fv, N side; T6 Fv, C side; one Fab of each Fv; knobs-into-holes Fc; source: Expi293 fragments joined by intein-mediated protein trans-splicing, purified (Superdex 200 Increase); copies: + + +

[9] = biological target: T9, BpT10-427
T9 construct: AC10 Fv, N side; T427 Fv, C side; one Fab of each Fv; knobs-into-holes Fc; source: Expi293 fragments joined by intein-mediated protein trans-splicing, purified (Superdex 200 Increase); copies: + + +
T9 sequence (chain, as listed by the source, chain 1 of 4): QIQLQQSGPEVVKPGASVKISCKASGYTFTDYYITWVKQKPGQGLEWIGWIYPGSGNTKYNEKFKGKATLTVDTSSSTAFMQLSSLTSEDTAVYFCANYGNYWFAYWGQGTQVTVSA
T9 sequence (chain, as listed by the source, chain 2 of 4): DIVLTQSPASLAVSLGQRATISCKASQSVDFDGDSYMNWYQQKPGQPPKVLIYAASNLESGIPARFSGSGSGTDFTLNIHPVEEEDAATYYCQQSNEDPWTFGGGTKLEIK
T9 sequence (chain, as listed by the source, chain 3 of 4): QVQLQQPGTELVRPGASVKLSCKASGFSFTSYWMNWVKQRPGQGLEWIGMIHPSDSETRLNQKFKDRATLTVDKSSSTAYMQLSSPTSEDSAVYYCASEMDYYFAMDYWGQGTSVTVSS
T9 sequence (chain, as listed by the source, chain 4 of 4): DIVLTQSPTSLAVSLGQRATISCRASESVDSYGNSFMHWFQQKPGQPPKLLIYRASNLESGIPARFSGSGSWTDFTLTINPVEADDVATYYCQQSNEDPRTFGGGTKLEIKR

T4 sequence (chain, as listed by the source, chain 1 of 4): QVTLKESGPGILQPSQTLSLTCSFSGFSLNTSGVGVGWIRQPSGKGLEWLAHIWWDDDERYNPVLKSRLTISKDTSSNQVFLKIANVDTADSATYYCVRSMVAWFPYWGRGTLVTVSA
T4 sequence (chain, as listed by the source, chain 2 of 4): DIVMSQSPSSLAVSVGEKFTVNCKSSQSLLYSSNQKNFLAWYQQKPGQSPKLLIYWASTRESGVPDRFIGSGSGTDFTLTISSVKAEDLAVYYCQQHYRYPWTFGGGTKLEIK
T4 sequence (chain, as listed by the source, chain 3 of 4): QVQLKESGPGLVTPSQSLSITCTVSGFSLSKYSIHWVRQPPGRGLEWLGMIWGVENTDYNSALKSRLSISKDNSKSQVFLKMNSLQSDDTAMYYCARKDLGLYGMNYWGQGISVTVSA
T4 sequence (chain, as listed by the source, chain 4 of 4): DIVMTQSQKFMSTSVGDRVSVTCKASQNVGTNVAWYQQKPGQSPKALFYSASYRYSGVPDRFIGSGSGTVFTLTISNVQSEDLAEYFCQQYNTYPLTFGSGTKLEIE
T7 sequence (chain, as listed by the source, chain 1 of 4): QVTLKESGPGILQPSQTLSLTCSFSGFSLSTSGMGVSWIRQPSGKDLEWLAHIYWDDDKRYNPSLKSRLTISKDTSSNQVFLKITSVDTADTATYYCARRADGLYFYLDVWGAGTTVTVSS
T7 sequence (chain, as listed by the source, chain 2 of 4): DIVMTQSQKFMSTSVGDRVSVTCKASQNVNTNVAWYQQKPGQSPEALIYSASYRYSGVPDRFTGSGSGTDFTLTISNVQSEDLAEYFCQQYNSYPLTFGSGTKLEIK
T7 sequence (chain, as listed by the source, chain 3 of 4): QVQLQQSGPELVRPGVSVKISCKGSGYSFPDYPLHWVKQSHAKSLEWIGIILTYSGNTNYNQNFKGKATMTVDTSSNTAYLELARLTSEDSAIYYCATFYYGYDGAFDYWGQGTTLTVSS
T7 sequence (chain, as listed by the source, chain 4 of 4): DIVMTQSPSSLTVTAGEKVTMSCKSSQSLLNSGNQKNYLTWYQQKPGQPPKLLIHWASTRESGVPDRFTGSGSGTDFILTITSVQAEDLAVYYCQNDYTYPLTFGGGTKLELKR
T1 sequence (chain, as listed by the source, chain 3 of 4): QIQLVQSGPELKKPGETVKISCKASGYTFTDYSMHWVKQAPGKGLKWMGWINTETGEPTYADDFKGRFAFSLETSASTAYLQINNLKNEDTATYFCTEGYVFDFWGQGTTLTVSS
T1 sequence (chain, as listed by the source, chain 4 of 4): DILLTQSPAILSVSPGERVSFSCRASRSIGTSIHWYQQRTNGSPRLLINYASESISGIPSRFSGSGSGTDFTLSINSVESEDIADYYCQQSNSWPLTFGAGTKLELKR

B1: Maltose-binding protein-fused CD30 (domain or fragment)
chain: FPQDRPFEDTCHGNPSHYYDKAVRRCCYRCPMGLFPTQQCPQRPTDCRKQCEPDYYLDEADRCTACVTCSRDDLVEKTPCAWNSSRVCECRPGMFCSTSAVNSCARCFFHSVCPAGMIVKFPGTAQKNTVCEPASPGVSPACASPENCKEPSSGTIPQAKPTPVSPATSSASTMPVRGGTRLAQEAASKLTRAPDSPSSVGRPSSDPGLSPTQPCPEGSGDCRKQCEPDYYLDEAGRCTACVSCSRDDLVEKTPCAWNSSRTCECRPGMICATSATNSCARCVPYPICAAETVTKPQDMAEKDTTFEAPPLGTQPDCN
modifications: Construct 1-336 includes signal peptide 1-18, taken as cleaved on secretion; C-terminal MBP carrier and His tag left out; disulfide-bonded, likely glycosylated (Expi293)
With B1 the Kd [1] was 0.26 nM, the Kd [2] was 48 nM and the Kd [3] was 0.67 nM. The Kd [4] was 0.46 nM, the Kd [5] was 0.87 nM and the Kd [6] was 0.37 nM. For the same binder, the Kd [7] was 0.26 nM, the Kd [8] was 0.26 nM and the Kd [9] was 0.58 nM.
